Measured values taken from paper PMC4571291 (2015).

Assays:
[1] = biological target: T1, actin (UniProt P68135 1-377); test: ITC; second site (KD2)
[2] = biological target: T1, actin; test: ITC
[3] = biological target: T1, actin; test: ITC; first site (KD1)

Kd [1] [nM]	Kd [2] [nM]	Kd [3] [nM]	Binder
1700			Lmod2_(ABS2) (domain or fragment) NGRNTESPAAIHPCGNPTVIEDALDKIKSNDPDTTEVNLNNIENITTQTLTRFAEALKDNTVVKTFSLANTHADDSAAMAIAEMLKVNEHITNVNVESNFITGKGILAIMRALQHNTVLTELRFHNQRHIMGSQVEMEIVKLLKENTTLLRLGYHFELPGPRMSMTSILTRNMDKQRQKRLQEQKQQE
130			TL1_(ABS2) (domain or fragment) VIKPTQYKPVPDEEPNSTDVEETLERIKNNDPKLEEVNLNNIRNIPIPTLKAYAEALKENSYVKKFALANTRADDHVAFAIAIMLKANKTITSLNLDSNHITGKGILAIFRALLQNNTLTELRFHNQRHICGGKTEMEIAKLLKENTTLLKLGYHFELAGPRMTVTNLLSRNMDKQRQKRLQEQRQAQ
	15000		Tmod1_(ABS1) (domain or fragment) MSYRRELEKYRDLDEDEILGALTEEELRTLENELDELDPDNALLPAGLRQKDQTTKAPTGPFKREELLDHLEKQAKEFKDREDLVPYTGEKRGKVWVPKQKPLDPVLESVTLEPELEEALANASDAELCDIAAILGMHTLMSNQQYYQALSSSSIMNKEGLNSVIKPTQYKPVPDEEPNSTDVEETLERIKNNDPKLEEVNLNNIRNIPIPTLKAYAEALKENSYVKKFSIVGTRSNDPVAYALAEMLKENKVLKTLNVESNFISGAGILRLVEALPYNTSLVEMKIDNQSQPLGNKVEMEIVSMLEKNATLLKFGYHFTQQGPRLRASNAMMNNNDLVRKRRLADLTGPIIPKCRSGV
600		154	TL2_(ABS2) (domain or fragment) VIKPTQYKPVPDEEPNSTDVEETLERIKNNDPKLEEVNLNNIRNIPIPTLKAYAEALKENSYVKKFSLANTHADDSAAMAIAEMLKVNEHITNVNVESNFITGKGILAIMRALQHNTVLTELRFHNQRHIMGSQVEMEIVKLLKENTTLLRLGYHFELPGPRMSMTSILTRNMDKQRQKRLQEQKQQE
